Legend:
[1] = molecular target: HLA-A*02 (on target cells) (human); test: cell-based or functional assay
[2] = molecular target: HLA-A*02 blocker antigen on beads (human); test: cell-based or functional assay

Substance: HLA-A*02 PA2.1 ScFv LIR1 inhibitor (C1765) (from UniProt Q8NHL6 399-650) (receptor)
- Emax shift of the CD19-CAR activator in Jurkat cells [1]: > 10 fold
- inhibition of IFNγ induction in primary T cells (MSLN CAR), HeLa target cells expressing HLA-A*02 [1]: > 5 fold
- inhibition of IFNγ induction in primary T cells (MSLN CAR), SiHa target cells expressing HLA-A*02 [1]: > 10 fold
- shift of the CD19 CAR EMAX, NALM6 target cells [1]: > 5 fold
- shift of the EGFR CAR (CT479) EMAX, Jurkat NFAT-luciferase, HLA-A*02 transduced HeLa target cells [1]: > 5 fold
- shift of the EGFR CAR EMAX, HeLa target cells [1]: > 5 fold
- shift of the EGFR CAR EMAX, Jurkat NFAT-luciferase, HCT116 target cells [1]: 1.8 fold
- shift of the EGFR CAR EMAX, SiHa target cells [1]: > 4 fold
- shift of the MSLN CAR EMAX, K562 target cells [1]: > 5 fold
- suppression of pan HLA scFv CAR activators, HLA-A*02-positive T2 cells, E:T 1:2 [1]: < 25 fold
- shift of the EGFR CAR EMAX, cell-free bead assay [2]: > 9 fold
- shift of the MSLN CAR EMAX, cell-free bead assay [2]: > 12 fold

Source: US20240173352A1
